Assay results from patent publication US20140205597A1.
Substitutions are numbered along the chain they refer to. Names and notes keep the numbering of the source.

B1: Nb6.2 (VHH)
VHH: EVQLVESGGGLVQPGGSLRLSCIASGLPFSTKSMGWFRQAPGKEREFVARISPGGTSRYYGDFVKGRFAISRDNAKNTTWLQMNSLKAEDTAVYYCASGERSTYIGSNYYRTNEYDYWGTGTQVTVSS
B2: Example 1C: wildtype VHH (SEQ ID NO: 23) (VHH)
VHH: EVQLVESGGGLVQAGGSLRLSCAASGRTFNNYAMGWFRRAPGKEREFVAAITRSGVRSGVSAIYGDSVKDRFTISRDNAKNTLYLQMNSLKPEDTAVYTCAASAIGSGALRRFEYDYSGQGTQVTVSS
B3: Example 1C: (K83R) (SEQ ID NO: 25) (VHH)
VHH: B2 VHH with K91R
B4: Example 1C: (Q108L) (SEQ ID NO: 26) (VHH)
VHH: B2 VHH with Q123L
B5: Example 1C: (A14P) (SEQ ID NO: 24) (VHH)
VHH: B2 VHH with A14P
B6: Example 1C: (A14P, K83R, Q108L) (SEQ ID NO: 27) (VHH)
VHH: B2 VHH with A14P, K91R, Q123L
B7: Example 1C: (A14P, R39Q, K83R, T91Y, Q108L) (SEQ ID NO: 28) (VHH)
VHH: B2 VHH with A14P, R39Q, K91R, T99Y, Q123L
B8: Nb6.5 (VHH)
VHH: EVQLLESGGGLVQPGGSLRLSCAASGLPFSTKSMGWFRQAPGKGREFVSRISPGGTSRYYGDFVKGRFTISRDNSKNTLYLQMNSLRAEDTAVYYCASGERSTYIGSNYYRTNEYDYWGQGTLVTVSS
B9: Nb4.1 (VHH)
VHH: EVQLVESGGGLVQPGGSLRLSCAASGSVFKINVMAWYRQAPGKGRELVAGIISGGSTSYADSVKGRFTISRDNAKNTLYLQMNSLRPEDTAVYYCAFITTESDYDLGRRYWGQGTLVTVSS
B10: Nb3.10 (VHH)
VHH: EVQLVESGGGLVQAGGSLRLSCAASRSIGRLDRMGWYRHRPGEPRELVATITGGSSINYGDSVKGRFTISIDNSKNTVYLQMNSLRPEDTAVYYCNFNKYVTSRDTWGQGTLVTVSS
B11: Nb3.1 (VHH)
VHH: B10 VHH with P41T, S62F, S74A, S84N, R86K, L112Q
B12: Nb3.11 (VHH)
VHH: B10 VHH with A14P, R86K
B13: Nb3.15 (VHH)
VHH: B10 VHH with L11S, A14P
B14: Nb3.12 (VHH)
VHH: B10 VHH with L112Q
B15: Nb3.13 (VHH)
VHH: B10 VHH with A14P, L112Q
B16: Nb3.14 (VHH)
VHH: B10 VHH with A14P, T114Q

What was measured:
[1] = target: analytical polyclonal antibody obtained in Example 2; assay: SPR Biacore T100, immobilized polyclonal, 500 nM ISV
[2] = target: serum sample IHUS#B09032311A3; assay: ECL displacement assay, variant competes with tagged SEQ ID NO:1
[3] = target: serum sample IHUS#B09032311A1; assay: as above
[4] = target: serum sample IHUS#B09032311A20; assay: as above
[5] = target: affinity purified antibody IHuP#002-001-ABL-08; assay: ECL bridging/competition assay, 10 ug/ml ISV vs tagged ISV

Binder | Binding (RU) [1] | % reduction [2] | ECLU confirmatory assay [2] | % reduction [3] | ECLU confirmatory assay [3] | % reduction [4] | ECLU confirmatory assay [4] | % reduction [5] | ECLU confirmatory assay [5]
B1 | 39 RU | – | – | – | – | – | – | – | –
B2 | – | 20% | 1780 ECLU | 4% | 60 ECLU | 53% | 8680 ECLU | 7.3% | 2710 ECLU
B3 | – | 37% | 1400 ECLU | 1% | 62 ECLU | 63% | 6910 ECLU | 15.7% | 2460 ECLU
B4 | – | 31% | 1530 ECLU | 5% | 59 ECLU | 62% | 6990 ECLU | 13.2% | 2530 ECLU
B5 | – | 91% | 205 ECLU | 10% | 56 ECLU | 96% | 668 ECLU | 90.8% | 268 ECLU
B6 | – | 93% | 156 ECLU | 8% | 57 ECLU | 97% | 628 ECLU | 89.1% | 319 ECLU
B7 | – | 90% | 228 ECLU | 6% | 58 ECLU | 97% | 570 ECLU | 91.4% | 251 ECLU
B8 | 66 RU | – | – | – | – | – | – | – | –
B9 | 51 RU | – | – | – | – | – | – | – | –
B10 | 91 RU | – | – | – | – | – | – | – | –
B11 | 2 RU | – | – | – | – | – | – | – | –
B12 | 88 RU | – | – | – | – | – | – | – | –
B13 | 22 RU | – | – | – | – | – | – | – | –
B14 | 86 RU | – | – | – | – | – | – | – | –
B15 | 90 RU | – | – | – | – | – | – | – | –
B16 | 79 RU | – | – | – | – | – | – | – | –
